This test has as its target F-actin (filamentous actin) (rabbit, UniProt P68135 1-377). Put plainly: co-sedimentation.

The values that follow come from publication doi:10.1101/270363 (bioRxiv, 2018).

B1: CC-WH2 fragment of nPIST (1st - 267th aa) (domain or fragment)
chain: MSAGGPCPAGAGGGPGGSSCPVGVSPGGVSMFRWLEVLEKEFDKAFVDVDLLLGEIDPDQADITYEGRQKMTSLSSCFAQLCHKAQTVSQINHKLEAQLVDLRSELTETQAEKVVLEKEVHEQLLQLHSTQLQLHAKTGQSVDSGAIKAKLSVHSVEDLERELEANKTEKVKEARLEAEVKLLRKENEALRRHIAVLQAEVYGARLAAKYLDKELAGRVQQIQLLGRDMKGPAHDKLWNQLEAEIHLHRHKTVIRACRGRNDLKRPM
B1: the binding result is reported as “binds”.

B2: CC1 fragment of nPIST (1st - 138th aa) (domain or fragment)
chain: MSAGGPCPAGAGGGPGGSSCPVGVSPGGVSMFRWLEVLEKEFDKAFVDVDLLLGEIDPDQADITYEGRQKMTSLSSCFAQLCHKAQTVSQINHKLEAQLVDLRSELTETQAEKVVLEKEVHEQLLQLHSTQLQLHAKT
On to B2, for which the binding result is on record as “binds”.

B3: CC2 fragment of nPIST (140th - 210th aa) (domain or fragment)
chain: QSVDSGAIKAKLSVHSVEDLERELEANKTEKVKEARLEAEVKLLRKENEALRRHIAVLQAEVYGARLAAKY
Take B3: the binding result was “binds”.

B4: WH2 fragment of nPIST (200th - 289th aa) (domain or fragment)
chain: EVYGARLAAKYLDKELAGRVQQIQLLGRDMKGPAHDKLWNQLEAEIHLHRHKTVIRACRGRNDLKRPMQAPPGHDQDSLKKSQGVGPIRK
Consider B4, for which the binding result is “binds”.
